For 41 substances, GBA EC50 Ratio ([35S]GTPγS binding) (EC50 compound/EC50 PYY(3-36)) and IC50 Ratio (IC50 compound/IC50 PYY(3-36)) results are on record in patent publication US20120172293A1 (Takeda / Millennium, published 2012).

The target in assay [1] is human Y2 receptor (human) (UniProt P49146). Kind of assay: cell-based or functional assay.
Assay [2] shares this target. As to the kind of experiment: RBA: displacement of [125I]-PYY from hY2R/CHO membranes.

Sequence of human Y2 receptor (human) (P49146 whole entry): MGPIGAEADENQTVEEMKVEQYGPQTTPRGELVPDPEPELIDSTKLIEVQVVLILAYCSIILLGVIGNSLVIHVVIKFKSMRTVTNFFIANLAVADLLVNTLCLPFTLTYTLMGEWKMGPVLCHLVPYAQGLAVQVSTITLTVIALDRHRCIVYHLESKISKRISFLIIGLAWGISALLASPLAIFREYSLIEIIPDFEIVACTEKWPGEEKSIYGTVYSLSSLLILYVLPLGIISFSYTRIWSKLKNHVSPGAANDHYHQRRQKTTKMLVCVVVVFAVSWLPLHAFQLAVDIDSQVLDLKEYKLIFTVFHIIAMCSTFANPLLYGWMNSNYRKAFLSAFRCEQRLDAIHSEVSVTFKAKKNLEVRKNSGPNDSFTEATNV

Turning to “[(1S)-1-carboxy-2-hydroxyethyl]carbamoyl-[D-Pro24, Pya(4)26, Cha27,36, Aib28,31, Lys30]-PYY(23-36) (peptide)”, the GBA EC50 Ratio ([35S]GTPγS binding) (EC50 compound/EC50 PYY(3-36)) in assay [1] came to 1.3. Further, in assay [2], the IC50 Ratio (IC50 compound/IC50 PYY(3-36)) came to 0.52.
The corresponding values for “Ac-[D-Pro24, Pya(4)26, Nal(2)27, Aib28,31, Lys30, Cha36]-PYY(23-36) (peptide)” are 4 and 7.2.
The corresponding values for “(Carboxymethyl)carbamoyl-[D-Pro24, Pya(4)26, Cha27,36, Aib28,31, Lys30]-PYY(23-36) (peptide)” are 1.2 and 1.2.
For “Tetrahydro-2H-pyran-4-yl-carbamoyl-[D-Pro24, Pya(4)26, Cha27,36, Aib28,31, Lys30]-PYY(23-36) (peptide)”, in that order: 0.61 and 0.52.
Take “Ac-[D-Pro24, Pya(4)26, Cha27,36, Aib28,31, Lys(Hexyl)30]-PYY(23-36) (peptide)”: the GBA EC50 Ratio ([35S]GTPγS binding) (EC50 compound/EC50 PYY(3-36)) in assay [1] is 1.3. Moreover, the IC50 Ratio (IC50 compound/IC50 PYY(3-36)) in assay [2] worked out at 1.
For “Ac-[D-Pro24, Pya(4)26, Cha27,36, Aib28, Lys30, D-Iva31]-PYY(23-36) (peptide)”, in that order: 1.6 and 0.55.
The corresponding values for “[(1S)-1-Carboxy-3-methylbutyl]carbamoyl-[D-Pro24, Pya(4)26, Cha27,36, Aib28,31, Lys30]-PYY(23-36) (peptide)” are 0.82 and 0.82.
For “(cis-2,6-Dimethylmorpholin-4-yl)carbonyl-[D-Pro24, Pya(4)26, Cha27,36, Aib28,31, Lys30]-PYY(23-36) (peptide)”, in that order: 0.65 and 0.91.
On to “Ac-[D-Pro24, Ala(4Pip)26, Cha27,36, Aib28,31, Lys30]-PYY(23-36) (peptide)”, for which the GBA EC50 Ratio ([35S]GTPγS binding) (EC50 compound/EC50 PYY(3-36)) in assay [1] was found to be 1.5. Besides, the IC50 Ratio (IC50 compound/IC50 PYY(3-36)) in assay [2] was found to be 1.2.
On to “4-Imidazolecarbonyl-[D-Hyp24, Iva25, Pya(4)26, Cha27,36, Leu(Me)28, Lys30, Aib31]-PYY(23-36) (peptide)”, for which the GBA EC50 Ratio ([35S]GTPγS binding) (EC50 compound/EC50 PYY(3-36)) in assay [1] was 1.4. The IC50 Ratio (IC50 compound/IC50 PYY(3-36)) in assay [2] came to 0.75.
For “2-Methylbutanoyl-[D-Pro24, Pya(4)26, Cha27,36, Aib28,31, Lys30]-PYY(23-36) (peptide)”, in that order: 0.78 and 0.54.
The corresponding values for “Ac-[D-Hyp24, Iva25, Pya(4)26, Cha27,36, Aib28,31, Lys30]-PYY(23-36) (peptide)” are 1.4 and 1.5.
Take “Ac-[D-Hyp24, Pya(4)26, Cha27,36, Aib28,31, Lys30]-PYY(23-36) (peptide)”: the GBA EC50 Ratio ([35S]GTPγS binding) (EC50 compound/EC50 PYY(3-36)) in assay [1] worked out at 0.86. Moreover, the IC50 Ratio (IC50 compound/IC50 PYY(3-36)) in assay [2] turned out to be 1.1.
Take “Morpholinocarbonyl-[D-Pro24, Pya(4)26, Cha27,36, Aib28,31, Lys30]-PYY(23-36) (peptide)”: the GBA EC50 Ratio ([35S]GTPγS binding) (EC50 compound/EC50 PYY(3-36)) in assay [1] was found to be 0.57. For the same substance, the IC50 Ratio (IC50 compound/IC50 PYY(3-36)) in assay [2] turned out to be 0.89.
Take “(3-carboxypropyl)carbamoyl-[D-Pro24, Pya(4)26, Cha27,36, Aib28,31, Lys30]-PYY(23-36) (peptide)”: the GBA EC50 Ratio ([35S]GTPγS binding) (EC50 compound/EC50 PYY(3-36)) in assay [1] was 0.97. The IC50 Ratio (IC50 compound/IC50 PYY(3-36)) in assay [2] is 1.2.
For “Ac-[D-Pro24, Pya(4)26, Cha27, Aib28,31, Lys30, Phe(2Me)36]-PYY(23-36) (peptide)”, in that order: 0.98 and 1.
The corresponding values for “Ac-[Dap22, D-Pro24, Pya(4)26, Cha27,36, Aib28,31, Lys30]-PYY(22-36) (peptide)” are 1.6 and 1.2.
The corresponding values for “Ac-[D-Pro24, Pya(4)26, Cha27,36, Aib28,31, Lys(Ac)30]-PYY(23-36) (peptide)” are 1.1 and 0.97.
Regarding “Ac-[D-Pro24, Pya(4)26, Cha27,36, Aib28,31, Har30]-PYY(23-36) (peptide)”, the GBA EC50 Ratio ([35S]GTPγS binding) (EC50 compound/EC50 PYY(3-36)) in assay [1] amounted to 0.79. For the same substance, the IC50 Ratio (IC50 compound/IC50 PYY(3-36)) in assay [2] is 0.36.
For “(2-Carboxyethyl)carbamoyl-[D-Pro24, Pya(4)26, Cha27,36, Aib28,31, Lys30]-PYY(23-36) (peptide)”, in that order: 0.94 and 1.3.
The corresponding values for “Ac-[D-Pro24, Pya(4)26, Cha27,36, Aib28,31, Ala(4-pip)30]-PYY(23-36) (peptide)” are 0.8 and 0.72.
For “[(1S)-1-Carboxyethyl]carbamoyl-[D-Pro24, Pya(4)26, Cha27,36, Aib28,31, Lys30]-PYY(23-36) (peptide)”, in that order: 0.94 and 0.78.
As for “Ac-[D-Hyp24, Iva25, Pya(4)26, Cha27,36, Leu(Me)28, Lys30, Aib31]-PYY(23-36) (peptide)”, in assay [1], the GBA EC50 Ratio ([35S]GTPγS binding) (EC50 compound/EC50 PYY(3-36)) is 1.5. For the same substance, the IC50 Ratio (IC50 compound/IC50 PYY(3-36)) in assay [2] came out at 0.97.
The corresponding values for “Ac-[D-Pro24, Pya(4)26, Cha27,36, Aib28,31, Orn30]-PYY(23-36) (peptide)” are 0.83 and 1.5.
For “Ac-[D-Pro24, Pya(4)26, Cha27,36, Aib28,31, Nle30]-PYY(23-36) (peptide)”, in that order: 1.4 and 0.96.
The corresponding values for “4-Imidazolecarbonyl-[D-Pro24, Pya(4)26, Cha27,36, Aib28,31, Lys30]-PYY(23-36) (peptide)” are 1.1 and 0.76.
As to “4-Imidazolecarbonyl-[D-Hyp24, Iva25,28, Pya(4)26, Cha27,36, Lys30, Aib31]-PYY(23-36) (peptide)”, the GBA EC50 Ratio ([35S]GTPγS binding) (EC50 compound/EC50 PYY(3-36)) in assay [1] was 1.3. For the same substance, the IC50 Ratio (IC50 compound/IC50 PYY(3-36)) in assay [2] is 0.99.
The corresponding values for “(3-Carboxypropyl)carbamoyl-[D-Hyp24, Iva25, Pya(4)26, Cha27,36, Leu(Me)28, Lys30, Aib31]-PYY(23-36) (peptide)” are 1.7 and 0.57.
For “Ac-[D-Pro24, Pya(4)26, Phe(4F)27, Aib28,31, Lys30, Cha36]-PYY(23-36) (peptide)”, in that order: 3.9 and 10.
The corresponding values for “Ac-[D-Pro24, Pya(4)26, Cha27,36, D-Iva28, Lys30, Aib31]-PYY(23-36) (peptide)” are 2.6 and 1.7.
“(Tetrahydro-2H-pyran-4-ylmethyl)carbamoyl-[D-Pro24, Pya(4)26, Cha27,36, Aib28,31, Lys30]-PYY(23-36) (peptide)”: the GBA EC50 Ratio ([35S]GTPγS binding) (EC50 compound/EC50 PYY(3-36)) in assay [1] came to 0.7. The IC50 Ratio (IC50 compound/IC50 PYY(3-36)) in assay [2] was 0.82.
As for “4-Imidazolecarbonyl-[D-Hyp24, Iva25, Pya(4)26, Cha27,36, Aib28,31, Lys30]-PYY(23-36) (peptide)”, in assay [1], the GBA EC50 Ratio ([35S]GTPγS binding) (EC50 compound/EC50 PYY(3-36)) worked out at 0.92. Also, the IC50 Ratio (IC50 compound/IC50 PYY(3-36)) in assay [2] was 1.3.
The corresponding values for “4-Pyridinecarbonyl-[D-Hyp24, Iva25, Pya(4)26, Cha27,36, Leu(Me)28, Lys30, Aib31]-PYY(23-36) (peptide)” are 1.6 and 0.93.
The corresponding values for “Ac-[D-Pro24, Pya(4)26, Cha27,36, Aib28,31, Lys(Me2)30]-PYY(23-36) (peptide)” are 1.7 and 1.1.
The corresponding values for “Ac-[D-Pro24, Pya(4)26, Nal(1)27, Aib28,31, Lys30, Cha36]-PYY(23-36) (peptide)” are 1.7 and 2.9.
As to “3-Carboxypropionyl-[D-Pro24, Pya(4)26, Cha27,36, Aib28,31, Lys30]-PYY(23-36) (peptide)”, in assay [1], the GBA EC50 Ratio ([35S]GTPγS binding) (EC50 compound/EC50 PYY(3-36)) worked out at 1.2. In addition, the IC50 Ratio (IC50 compound/IC50 PYY(3-36)) in assay [2] is 0.96.
For “Ac-[D-Pro24, Pya(4)26, Cha27, Aib28,31, Lys30, Phe(2,6-Me2)36]-PYY(23-36) (peptide)”, in that order: 0.59 and 0.52.
For “Ac-[D-Pro24, Nar25, Pya(4)26, Cha27,36, Aib28,31, Lys30]-PYY(23-36) (peptide)”, in that order: 1.8 and 1.1.
For “Ac-[D-Pro24, Cit25, Pya(4)26, Cha27,36, Aib28,31, Lys30]-PYY(23-36) (peptide)”, in that order: 2.2 and 2.8.
Consider “Ac-[D-Pro24, Tyr(Me)26, Cha27,36, Aib28,31, Lys30]-PYY(23-36) (peptide)”, for which the GBA EC50 Ratio ([35S]GTPγS binding) (EC50 compound/EC50 PYY(3-36)) in assay [1] is 1.4. In assay [2], the IC50 Ratio (IC50 compound/IC50 PYY(3-36)) was 0.88.
On to “Ac-[D-Pro24, Pya(4)26, Cha27, Aib28,31, Lys30, Phe(3Me)36]-PYY(23-36) (peptide)”, for which the GBA EC50 Ratio ([35S]GTPγS binding) (EC50 compound/EC50 PYY(3-36)) in assay [1] is 1.2. Further, the IC50 Ratio (IC50 compound/IC50 PYY(3-36)) in assay [2] was found to be 0.91.
